# Measured values from patent publication US20200223889A1, “Bicyclic Compounds Capable of Binding to Melanocortin 4 Receptor” (Novo Nordisk A/S, priority 2017, published 2020).
# Positions of bridges follow the written chain, without caps; N, C: chain ends. Non-standard residues stand in square brackets, D forms with d. Hyp = O=C(O)[C@@H]1C[C@@H](O)CN1; Dab = NCC[C@H](N)C(=O)O; Aib = CC(C)(N)C(=O)O
# Columns and labels:
# [1] = biological target: human melanocortin 4 receptor (human), P32245; experiment: competition with 125-NDP-α-MSH, BHK human MC4R membranes
# [2] = biological target: human melanocortin 1 receptor (human), Q01726; experiment: cell-based or functional assay
# [3] = biological target: human melanocortin 4 receptor (human), P32245; experiment: cell-based or functional assay
# [4] = biological target: human melanocortin 4 receptor (human) (UniProt P32245); experiment: cell-based or functional assay
# [5] = biological target: human melanocortin 4 receptor (human) (UniProt P32245); experiment: competition with 125-NDP-α-MSH, BHK human MC4R membranes
# Sequence of human melanocortin 1 receptor (human), Q01726 (Q01726 whole entry): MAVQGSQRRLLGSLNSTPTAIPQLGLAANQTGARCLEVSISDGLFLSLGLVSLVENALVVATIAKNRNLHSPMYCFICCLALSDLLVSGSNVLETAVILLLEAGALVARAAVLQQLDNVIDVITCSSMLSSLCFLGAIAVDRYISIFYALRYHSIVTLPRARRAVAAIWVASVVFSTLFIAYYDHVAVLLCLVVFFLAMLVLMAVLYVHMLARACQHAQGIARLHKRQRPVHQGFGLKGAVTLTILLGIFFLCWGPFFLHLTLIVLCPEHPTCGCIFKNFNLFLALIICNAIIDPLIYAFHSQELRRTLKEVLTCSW
# Sequence of human melanocortin 4 receptor (human), P32245 (P32245 whole entry): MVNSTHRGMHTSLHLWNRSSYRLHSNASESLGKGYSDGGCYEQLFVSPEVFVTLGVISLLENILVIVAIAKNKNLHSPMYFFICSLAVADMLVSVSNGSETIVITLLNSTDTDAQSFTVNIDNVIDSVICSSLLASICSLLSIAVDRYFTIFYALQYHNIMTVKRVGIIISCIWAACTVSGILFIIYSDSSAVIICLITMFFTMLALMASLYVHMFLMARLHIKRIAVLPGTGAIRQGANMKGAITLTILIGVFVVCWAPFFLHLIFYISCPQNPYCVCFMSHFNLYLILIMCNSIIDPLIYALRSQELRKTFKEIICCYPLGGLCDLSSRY
# Sequence of human melanocortin 4 receptor (human) (P32245 whole entry): as above
Ki [1] [nM],MC1R cAMP EC50 [2] [nM],MC4R cAMP EC50 [3] [nM],MC4R cAMP EC50 [4] [nM],Ki [5] [nM],Binder
0.26,6.36,0.1,–,–,CAHFRWCRFFNAF (modifications not checked) [Chem. 13]
50.9,31.9,1.53,–,–,CAHFRWCAEEEW (modifications not checked) [Chem. 44]
0.02,0.22,0.01,–,–,CAHFRWCAKKKR (modifications not checked) [Chem. 85]
0.08,1.76,0.02,–,–,CAHFRWCAHFRW (modifications not checked) [Chem. 8]
0.17,1.39,0.04,–,–,CAHFRWCAAAAW (modifications not checked) [Chem. 87]
0.01,0.16,0.004,–,–,CAHFRWCAKKKR (modifications not checked) [Chem. 59]
0.25,2.17,0.03,–,–,CAHFRWCAAFAW (modifications not checked) [Chem. 11]
–,–,–,0.12,0.88,cyclo(C[dV]H[dF]RWC[dV]H[dF]RW) (disulfide 1-7; SMILES CC(C)[C@H]1NC(=O)[C@@H]2CSSC[C@H](NC(=O)[C@H](Cc3c[nH]c4ccccc34)NC(=O)[C@H](CCCNC(=N)N)NC(=O)[C@@H](Cc3ccccc3)NC(=O)[C@H](Cc3c[nH]cn3)NC1=O)C(=O)N[C@H](C(C)C)C(=O)N[C@@H](Cc1c[nH]cn1)C(=O)N[C@H](Cc1ccccc1)C(=O)N[C@@H](CCCNC(=N)N)C(=O)N[C@@H](Cc1c[nH]c3ccccc13)C(=O)N2) [Chem. 34]
0.04,0.31,0.01,–,–,CAHFRWCAHFRW (modifications not checked) [Chem. 111]
–,–,–,0.44,2.61,"CXHFXWCXHFXW (Aib 2, 8; D-Phe 4, 10; AGP 5, 11; disulphide Cys1-Cys7; head-to-tail amide Cys1-Trp12) [Chem. 43]"
0.07,0.59,0.02,–,–,CAHFRWCAAAAR (modifications not checked) [Chem. 89]
–,–,–,19.8,27.8,cyclo(C[dP]H[dF]RWC[dP]H[dF]RW) (disulfide 1-7; SMILES N=C(N)NCCC[C@@H]1NC(=O)[C@@H](Cc2ccccc2)NC(=O)[C@H](Cc2c[nH]cn2)NC(=O)[C@H]2CCCN2C(=O)[C@@H]2CSSC[C@H](NC(=O)[C@H](Cc3c[nH]c4ccccc34)NC1=O)C(=O)N1CCC[C@@H]1C(=O)N[C@@H](Cc1c[nH]cn1)C(=O)N[C@H](Cc1ccccc1)C(=O)N[C@@H](CCCNC(=N)N)C(=O)N[C@@H](Cc1c[nH]c3ccccc13)C(=O)N2) [Chem. 33]
0.11,0.65,0.01,–,–,CAHFRWCAAAAR (modifications not checked) [Chem. 90]
0.16,8.65,0.15,–,–,CAHFRWCAYFKW (modifications not checked) [Chem. 80]
–,–,–,4.22,5.64,cyclo(C[Aib][Hyp][dF]RWC[Aib][Hyp][dF]RW) (disulfide 1-7; SMILES CC1(C)NC(=O)[C@@H]2CSSC[C@H](NC(=O)[C@H](Cc3c[nH]c4ccccc34)NC(=O)[C@H](CCCNC(=N)N)NC(=O)[C@@H](Cc3ccccc3)NC(=O)[C@@H]3C[C@@H](O)CN3C1=O)C(=O)NC(C)(C)C(=O)N1C[C@H](O)C[C@H]1C(=O)N[C@H](Cc1ccccc1)C(=O)N[C@@H](CCCNC(=N)N)C(=O)N[C@@H](Cc1c[nH]c3ccccc13)C(=O)N2) [Chem. 38]
0.05,0.19,0.04,–,–,CAHFRWCKKKR (modifications not checked) [Chem. 101]
0.2,1.31,0.02,–,–,CAHFRWCAAAAW (modifications not checked) [Chem. 88]
–,–,–,14.5,9.6,cyclo(C[dK]H[dF]HWC[dK]H[dF]HW) (disulfide 1-7; SMILES NCCCC[C@H]1NC(=O)[C@@H]2CSSC[C@H](NC(=O)[C@H](Cc3c[nH]c4ccccc34)NC(=O)[C@H](Cc3c[nH]cn3)NC(=O)[C@@H](Cc3ccccc3)NC(=O)[C@H](Cc3c[nH]cn3)NC1=O)C(=O)N[C@H](CCCCN)C(=O)N[C@@H](Cc1c[nH]cn1)C(=O)N[C@H](Cc1ccccc1)C(=O)N[C@@H](Cc1c[nH]cn1)C(=O)N[C@@H](Cc1c[nH]c3ccccc13)C(=O)N2) [Chem. 86]
1.82,35.3,0.44,–,–,CAHFRWCAHFRW (modifications not checked) [Chem. 56]
–,–,–,5.65,7.86,cyclo(C[Aib]H[dF][Dab]WC[Aib]H[dF][Dab]W) (disulfide 1-7; SMILES CC1(C)NC(=O)[C@@H]2CSSC[C@H](NC(=O)[C@H](Cc3c[nH]c4ccccc34)NC(=O)[C@H](CCN)NC(=O)[C@@H](Cc3ccccc3)NC(=O)[C@H](Cc3c[nH]cn3)NC1=O)C(=O)NC(C)(C)C(=O)N[C@@H](Cc1c[nH]cn1)C(=O)N[C@H](Cc1ccccc1)C(=O)N[C@@H](CCN)C(=O)N[C@@H](Cc1c[nH]c3ccccc13)C(=O)N2) [Chem. 46]
1.21,30.2,0.19,–,–,CAHFRWCPPERW (modifications not checked) [Chem. 112]
10.1,14.3,0.49,–,–,CAHFRWCAEEAW (modifications not checked) [Chem. 102]
–,–,–,1.34,5.39,"CXHFXWCXHFXW (Aib 2, 8; D-Phe 4, 10; Cit 5, 11; disulphide Cys1-Cys7; head-to-tail amide Cys1-Trp12) [Chem. 41]"
0.28,3.97,0.07,–,–,CAHFRWCRFFNA (modifications not checked) [Chem. 12]
–,4.88,–,–,–,CAHFRWCAHFRW (modifications not checked) [Chem. 10]
–,–,–,0.06,0.19,cyclo(CH[dF]RW[dA]CH[dF]RW[dA]) (disulfide 1-7; SMILES C[C@H]1NC(=O)[C@H](Cc2c[nH]c3ccccc23)NC(=O)[C@H](CCCNC(=N)N)NC(=O)[C@@H](Cc2ccccc2)NC(=O)[C@H](Cc2c[nH]cn2)NC(=O)[C@@H]2CSSC[C@H](NC1=O)C(=O)N[C@@H](Cc1c[nH]cn1)C(=O)N[C@H](Cc1ccccc1)C(=O)N[C@@H](CCCNC(=N)N)C(=O)N[C@@H](Cc1c[nH]c3ccccc13)C(=O)N[C@H](C)C(=O)N2) [Chem. 6]
